Experimental data as given in patent US20230250178A1.

Columns and labels:
human CCR8 (human) [1] = target: human CCR8 (human) (UniProt P51685); experiment: FACS, BODIPY-labelled antibody, HuT78
[2] = target: cynomolgus CCR8 (cynomolgus); experiment: FACS, CHO-cynoCCR8
human CCR8 (human) [3] = target: human CCR8 (human) (UniProt P51685); experiment: FACS, CHO-hCCR8
human CCR8 (human) [4] = target: human CCR8 (human) (UniProt P51685); experiment: cell-based or functional assay

Chain of cynomolgus CCR8 (cynomolgus) (O97665 other isoform, or with tags, fused parts or gaps): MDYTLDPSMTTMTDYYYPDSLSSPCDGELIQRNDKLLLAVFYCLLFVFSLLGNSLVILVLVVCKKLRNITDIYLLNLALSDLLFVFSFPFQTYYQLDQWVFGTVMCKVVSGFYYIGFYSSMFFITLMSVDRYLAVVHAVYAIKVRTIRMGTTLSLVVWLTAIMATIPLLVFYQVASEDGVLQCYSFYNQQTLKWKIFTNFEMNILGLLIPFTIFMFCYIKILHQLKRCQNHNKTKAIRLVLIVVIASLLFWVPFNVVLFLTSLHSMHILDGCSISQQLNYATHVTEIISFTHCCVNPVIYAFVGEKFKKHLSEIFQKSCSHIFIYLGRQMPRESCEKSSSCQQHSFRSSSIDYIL

FACS HuT78 [MFI] (human CCR8 (human) [1]): 50 MFI
EC50 [2]: 12.1 nM
EC50 (human CCR8 (human) [3]): 2.8 nM
IC50, Ca flux assay (human CCR8 (human) [4]): 1.3 nM
IC50, inhibition of CCL1 induced β-arrestin signaling (human CCR8 (human) [4]): 0.78 nM
B1: 433H (antibody, from another filing, V domains shown)
VH: EVQLVETGGGLVQPKGSLRLSCAASGFPFNTFAMNWVRQAPGKGLEWLARIRSKSNNYATYYADSVKDRFTISRDDSRRMLYLLMNNVKFEDTAIYYCVRGKENNYGYAMDYWGQGTSVTVSS
VL: DIVMTQAAPSVPVTPGESVSISCRSSQSLLHSNGNTYLYWFLQRPGQSPQLLIYRMSNLASGVPDRFSGSGSGTAFTLRISRVEAEDVGVYYCMQHLEYPFTFGIGTKLELKR
